# In patent publication US20190062420A1 (Janssen / Centocor, published 2019):
# T1: human FcγRIIB (NM_004001) expressed on cells (human, UniProt P31994 43-310)
# T1 sequence: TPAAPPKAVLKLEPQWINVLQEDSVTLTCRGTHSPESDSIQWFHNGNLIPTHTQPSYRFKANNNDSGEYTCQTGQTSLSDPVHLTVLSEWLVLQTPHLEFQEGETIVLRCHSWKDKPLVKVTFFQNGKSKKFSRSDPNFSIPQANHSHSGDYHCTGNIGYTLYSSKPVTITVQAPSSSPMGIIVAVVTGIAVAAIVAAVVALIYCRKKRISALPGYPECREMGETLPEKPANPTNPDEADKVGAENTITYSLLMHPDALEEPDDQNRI
# T2: human FcγRIIA (NM_021642) expressed on cells (human, UniProt P12318 36-317)
# T2 sequence: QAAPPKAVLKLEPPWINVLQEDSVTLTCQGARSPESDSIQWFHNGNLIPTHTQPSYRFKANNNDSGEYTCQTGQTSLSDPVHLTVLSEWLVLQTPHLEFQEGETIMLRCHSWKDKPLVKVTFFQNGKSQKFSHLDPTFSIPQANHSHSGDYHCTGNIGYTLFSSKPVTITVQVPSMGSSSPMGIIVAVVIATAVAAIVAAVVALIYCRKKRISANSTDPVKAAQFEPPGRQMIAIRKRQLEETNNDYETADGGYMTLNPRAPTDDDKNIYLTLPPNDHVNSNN
# T3: FcγRIIA protein (human, UniProt P12318 36-217, biotinylated (SureLINK Biotin Kit) in the ELISA of Example 1)
# T3 sequence: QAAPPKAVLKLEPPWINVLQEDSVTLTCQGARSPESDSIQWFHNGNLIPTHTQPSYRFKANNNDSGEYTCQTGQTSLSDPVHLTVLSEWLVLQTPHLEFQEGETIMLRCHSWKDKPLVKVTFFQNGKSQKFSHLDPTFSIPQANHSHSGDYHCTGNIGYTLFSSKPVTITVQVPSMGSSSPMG
# T4: FcγRIIB protein (human, UniProt P31994 43-217, biotinylated (SureLINK Biotin Kit) in the ELISA of Example 1)
# T4 sequence: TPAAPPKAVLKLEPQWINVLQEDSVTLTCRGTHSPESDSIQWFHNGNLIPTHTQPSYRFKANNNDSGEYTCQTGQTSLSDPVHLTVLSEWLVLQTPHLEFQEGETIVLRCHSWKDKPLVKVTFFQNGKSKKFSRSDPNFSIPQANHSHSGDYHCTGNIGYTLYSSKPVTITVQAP
# T5: human OX40 expressed on HEK-Blue: OX40 cells (human, UniProt P43489 29-277)
# T5 construct: also called CD134
# T5 sequence: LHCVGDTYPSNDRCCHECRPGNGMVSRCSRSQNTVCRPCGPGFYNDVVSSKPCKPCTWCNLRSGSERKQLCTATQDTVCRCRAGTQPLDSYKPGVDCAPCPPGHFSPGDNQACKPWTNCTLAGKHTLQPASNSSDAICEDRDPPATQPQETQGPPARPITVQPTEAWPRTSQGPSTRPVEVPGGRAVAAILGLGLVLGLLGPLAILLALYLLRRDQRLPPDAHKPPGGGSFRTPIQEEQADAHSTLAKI
# What was measured:
# [1] = molecular target: T1, human FcγRIIB (NM_004001) expressed on …; assay: cell-based or functional assay
# [2] = molecular target: T2, human FcγRIIA (NM_021642) expressed on …; assay: cell-based or functional assay
# [3] = molecular target: T6, human FcγRIIIA (NM_000569) expressed on cells (human, UniProt P08637 17-254); assay: cell-based or functional assay
# T6 sequence (P08637 17-254 limits assumed): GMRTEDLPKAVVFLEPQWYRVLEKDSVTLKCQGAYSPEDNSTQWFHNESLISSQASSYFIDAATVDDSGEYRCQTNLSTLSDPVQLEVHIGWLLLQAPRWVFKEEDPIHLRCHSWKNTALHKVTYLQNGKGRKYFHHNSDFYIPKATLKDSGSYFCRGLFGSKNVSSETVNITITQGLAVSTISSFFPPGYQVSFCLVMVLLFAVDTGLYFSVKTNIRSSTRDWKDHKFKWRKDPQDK
# FcγRIIA protein = molecular target: T3, FcγRIIA protein; assay: cell-based or functional assay
# FcγRIIB protein = molecular target: T4, FcγRIIB protein; assay: cell-based or functional assay
# [4] = molecular target: T5, human OX40 expressed on HEK-Blue: OX40 …; assay: flow cytometry; HEK-Blue: OX40 cells
# Summary of the method: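 HEK-Blue Null 1 cells stably transfected with human OX40 were blocked, then incubated with mAbtyrin for 1.5 h at 4 °C. Binding was detected with a PE anti-human IgG F(ab′)₂ secondary, gating on DRAQ7-excluding live cells and taking geometric mean fluorescence. EC50 came from nonlinear regression versus log antibody concentration.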
# [5] = molecular target: T7, human FcγRI (NM_000566) expressed on cells (human, UniProt P12314 16-374); assay: flow cytometry; Expi293F cells transfected with FcγRI
# T7 construct: Transiently expressed on Expi293F cells
# T7 sequence (P12314 16-374 limits assumed): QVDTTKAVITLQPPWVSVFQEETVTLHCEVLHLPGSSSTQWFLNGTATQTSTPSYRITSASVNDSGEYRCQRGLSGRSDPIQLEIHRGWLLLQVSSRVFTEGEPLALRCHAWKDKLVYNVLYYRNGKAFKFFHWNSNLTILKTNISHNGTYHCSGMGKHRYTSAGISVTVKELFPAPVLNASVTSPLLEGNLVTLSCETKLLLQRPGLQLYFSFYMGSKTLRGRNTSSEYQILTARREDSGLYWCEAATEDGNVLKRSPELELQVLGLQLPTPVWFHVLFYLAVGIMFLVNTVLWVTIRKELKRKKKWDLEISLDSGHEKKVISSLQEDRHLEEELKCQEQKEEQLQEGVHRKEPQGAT
# Description: (§1) Plasmids expressing cDNAs encoding human FcγRI (NM_000566) (SEQ ID NO: 44), FcγRIIA (NM_021642) (SEQ ID NO: 2), FcγRIIB (NM_004001) (SEQ ID NO: 3), and FcγRIIIA (NM_000569) (SEQ ID NO: 45) (Origene) were transiently transfected into Expi293F cells by ExpiFectamine293 transfection kit (Life Technologies). Flow cytometry assays were performed 48 h after transfection.
# (§2) 2×10⁵ cells per well were seeded in 96-well plate and blocked in BSA Stain Buffer (BD Biosciences, San Jose, USA) for 30 min at 4° C. Cells were incubated with test mAbtyrin on ice for 1.5 h at 4° C. After being washed twice with BSA stain buffer, the cells were incubated with R-PE labeled anti-human or anti-mouse IgG secondary antibody (Jackson Immunoresearch Laboratories) for 45 min at 4° C. The cells were washed twice in stain buffer and then resuspended in 150 μL of Stain Buffer containing 1:200 diluted DRAQ7 live/dead stain (Cell Signaling Technology, Danvers, USA). PE and DRAQ7 signals of the stained cells were detected by Miltenyi MACSQuant flow cytometer (Miltenyi Biotec, Auburn, USA) using B2 and B4 channel respectively. Live cells were gated on DRAQ7 exclusion and the geometric mean fluorescence signals were determined for at least 10,000 live events collected. FlowJo software (Tree Star) was used for analysis. Data was plotted as the logarithm of antibody concentration versus mean fluorescence signals. Nonlinear regression analysis was performed by GraphPad Prism 6 (GraphPad Software, Inc.) and EC₅₀ values were calculated.
# [6] = molecular target: T2, human FcγRIIA (NM_021642) expressed on …; assay: flow cytometry; Expi293F cells transfected with FcγRIIA
# Description: as §1, §2
# [7] = molecular target: T1, human FcγRIIB (NM_004001) expressed on …; assay: flow cytometry; Expi293F cells transfected with FcγRIIB
# Description: as §1, §2
# [8] = molecular target: T6, human FcγRIIIA (NM_000569) expressed on …; assay: flow cytometry; Expi293F cells transfected with FcγRIIIA
# Description: as §1, §2
# [9] = molecular target: T1, human FcγRIIB (NM_004001) expressed on …; assay: flow cytometry; Raji cells (express predominantly FcγRIIB)
# Description: as §2
# Raji cell is a cell line derived from B cells that express predominantly FcγRIIB. The binding of mAbtyrins on Raji cells were investigated by flow cytometry assay described for testing mAbtyrin binding to FcγR. Binding of the mAbtyrins were detected by flow cytometry using a PE-labeled Goat F(ab′) against Human IgG(γ).
% activity at 1 µg/ml with Raji cells (HEK-Blue: OX40 NF-κB reporter) [1],ADCP EC50 [2],ADCC (fold activation) at 1 µg/ml [3],"IFNγ production by activated CD4 T cells, plate-coated FcγRIIA (FcγRIIA protein)","TNFα production by activated CD4 T cells, plate-coated FcγRIIA (FcγRIIA protein)","IFNγ production by activated CD4 T cells, plate-coated FcγRIIb (FcγRIIB protein)","TNFα production by activated CD4 T cells, plate-coated FcγRIIb (FcγRIIB protein)",EC50 [4],EC50 [5],EC50 [6],EC50 [7],EC50 [8],EC50 [9],Binder
7%,0.012 µg/mL,1 fold,89 pg/mL,28 pg/mL,76 pg/mL,29 pg/mL,0.161 µg/mL,> 10 µg/mL,0.042 µg/mL,1.01 µg/mL,> 10 µg/mL,1.2 µg/mL,"OX40SF2IgG2sigma_R2BS29_HC-N (bispecific antibody, mAbtyrin: R2BS29 FN3 domain and linker at the N-terminus of the heavy chain of OX40SF2IgG2sigma; also called mAbtyrin) heavy: LPAPKNLVVSRVTEDSARLSWTAPDAAFDSFPIYYWEYRVGGEAIVLTVPGSERSYDLTGLKPGTEYFVYINGVKGGEESRPLSAIFTTGGGGSGGGGSGGGGSGGGGSQVQLVQSGAEVKKPGSSVKVSCKASGYTFKDYTMHWVRQAPGQGLEWIGGIYPNNGGSTYNQNFKDRVTLTADKSTSTAYMELSSLRSEDTAVYYCARMGYHGPHLDFDVWGQGTTVTVSSASTKGPSVFPLAPCSRSTSESTAALGCLVKDYFPEPVTVSWNSGALTSGVHTFPAVLQSSGLYSLSSVVTVPSSNFGTQTYTCNVDHKPSNTKVDKTVERKCCVECPPCPAPPAAASSVFLFPPKPKDTLMISRTPEVTCVVVDVSAEDPEVQFNWYVDGVEVHNAKTKPREEQFNSTFRVVSVLTVLHQDWLNGKEYKCKVSNKGLPSSIEKTISKTKGQPREPQVYTLPPSREEMTKNQVSLTCLVKGFYPSDIAVEWESNGQPENNYKTTPPMLDSDGSFFLYSKLTVDKSRWQQGNVFSCSVMHEALHNHYTQKSLSLSPGK light: DIQMTQSPSSLSASVGDRVTITCKASQDVGAAVAWYQQKPGKAPKLLIYWASTRHTGVPSRFSGSGSGTDFTLTISSLQPEDFATYYCQQYINYPLTFGGGTKVEIKRTVAAPSVFIFPPSDEQLKSGTASVVCLLNNFYPREAKVQWKVDNALQSGNSQESVTEQDSKDSTYSLSSTLTLSKADYEKHKVYACEVTHQGLSSPVTKSFNRGEC"
76%,0.0165 µg/mL,1 fold,153 pg/mL,30 pg/mL,89 pg/mL,30 pg/mL,0.196 µg/mL,> 10 µg/mL,0.054 µg/mL,0.941 µg/mL,> 10 µg/mL,3.44 µg/mL,"OX40SF2IgG2sigma_R2BS29_LC-C (bispecific antibody, mAbtyrin: linker and R2BS29 FN3 domain at the C-terminus of the light chain of OX40SF2IgG2sigma; also called mAbtyrin) heavy: QVQLVQSGAEVKKPGSSVKVSCKASGYTFKDYTMHWVRQAPGQGLEWIGGIYPNNGGSTYNQNFKDRVTLTADKSTSTAYMELSSLRSEDTAVYYCARMGYHGPHLDFDVWGQGTTVTVSSASTKGPSVFPLAPCSRSTSESTAALGCLVKDYFPEPVTVSWNSGALTSGVHTFPAVLQSSGLYSLSSVVTVPSSNFGTQTYTCNVDHKPSNTKVDKTVERKCCVECPPCPAPPAAASSVFLFPPKPKDTLMISRTPEVTCVVVDVSAEDPEVQFNWYVDGVEVHNAKTKPREEQFNSTFRVVSVLTVLHQDWLNGKEYKCKVSNKGLPSSIEKTISKTKGQPREPQVYTLPPSREEMTKNQVSLTCLVKGFYPSDIAVEWESNGQPENNYKTTPPMLDSDGSFFLYSKLTVDKSRWQQGNVFSCSVMHEALHNHYTQKSLSLSPGK light: DIQMTQSPSSLSASVGDRVTITCKASQDVGAAVAWYQQKPGKAPKLLIYWASTRHTGVPSRFSGSGSGTDFTLTISSLQPEDFATYYCQQYINYPLTFGGGTKVEIKRTVAAPSVFIFPPSDEQLKSGTASVVCLLNNFYPREAKVQWKVDNALQSGNSQESVTEQDSKDSTYSLSSTLTLSKADYEKHKVYACEVTHQGLSSPVTKSFNRGECGGGGSGGGGSGGGGSGGGGSMLPAPKNLVVSRVTEDSARLSWTAPDAAFDSFPIYYWEYRVGGEAIVLTVPGSERSYDLTGLKPGTEYFVYINGVKGGEESRPLSAIFTT"
11%,0.0089 µg/mL,1 fold,103 pg/mL,29 pg/mL,72 pg/mL,29 pg/mL,0.431 µg/mL,> 10 µg/mL,0.046 µg/mL,1.02 µg/mL,> 10 µg/mL,3.37 µg/mL,"OX40SF2IgG2sigma_R2BS29_LC-N (bispecific antibody, mAbtyrin: R2BS29 FN3 domain and linker at the N-terminus of the light chain of OX40SF2IgG2sigma; also called mAbtyrin) heavy: QVQLVQSGAEVKKPGSSVKVSCKASGYTFKDYTMHWVRQAPGQGLEWIGGIYPNNGGSTYNQNFKDRVTLTADKSTSTAYMELSSLRSEDTAVYYCARMGYHGPHLDFDVWGQGTTVTVSSASTKGPSVFPLAPCSRSTSESTAALGCLVKDYFPEPVTVSWNSGALTSGVHTFPAVLQSSGLYSLSSVVTVPSSNFGTQTYTCNVDHKPSNTKVDKTVERKCCVECPPCPAPPAAASSVFLFPPKPKDTLMISRTPEVTCVVVDVSAEDPEVQFNWYVDGVEVHNAKTKPREEQFNSTFRVVSVLTVLHQDWLNGKEYKCKVSNKGLPSSIEKTISKTKGQPREPQVYTLPPSREEMTKNQVSLTCLVKGFYPSDIAVEWESNGQPENNYKTTPPMLDSDGSFFLYSKLTVDKSRWQQGNVFSCSVMHEALHNHYTQKSLSLSPGK light: LPAPKNLVVSRVTEDSARLSWTAPDAAFDSFPIYYWEYRVGGEAIVLTVPGSERSYDLTGLKPGTEYFVYINGVKGGEESRPLSAIFTTGGGGSGGGGSGGGGSGGGGSDIQMTQSPSSLSASVGDRVTITCKASQDVGAAVAWYQQKPGKAPKLLIYWASTRHTGVPSRFSGSGSGTDFTLTISSLQPEDFATYYCQQYINYPLTFGGGTKVEIKRTVAAPSVFIFPPSDEQLKSGTASVVCLLNNFYPREAKVQWKVDNALQSGNSQESVTEQDSKDSTYSLSSTLTLSKADYEKHKVYACEVTHQGLSSPVTKSFNRGEC"
